In patent US20170029481A1 (EPODOSE, published 2017):
Where two headings read alike, the source gives them in different places. Blank lines part the entries; values can stand above or below the binder they belong to. Where no end group is shown, it is not given here. [ ]: non-standard residue; d: D form. hLeu = CC(C)CC[C@H](N)C(=O)O; βAla = NCCC(=O)O

Experiments:
Test in all cases: radioligand binding, displacement of [125I]EPO
[1] = biological target: T1, erythropoietin receptor, human recombinant (NSO cells) (human) (UniProt P19235)
T1 sequence (looked up): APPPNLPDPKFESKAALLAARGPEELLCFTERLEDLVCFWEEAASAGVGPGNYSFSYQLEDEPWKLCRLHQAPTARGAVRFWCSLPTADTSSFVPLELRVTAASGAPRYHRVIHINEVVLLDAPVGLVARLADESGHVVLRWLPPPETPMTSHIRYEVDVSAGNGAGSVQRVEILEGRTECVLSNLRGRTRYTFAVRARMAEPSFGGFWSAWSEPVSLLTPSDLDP

[2] = biological target: T2, erythropoietin receptor, human recombinant (NSO cells) (human, UniProt P19235 25-250, limits assumed)
T2 construct: also called EPOR; EPO receptor
T2 sequence (looked up): T1 sequence (looked up)

[3] = biological target: T2, erythropoietin receptor, human …; remark: listed apart in the source
[4] = biological target: T2, erythropoietin receptor, human …; remark: listed apart in the source

Ki [1]: 27 nM
Binder: Ac-NYLRM[βAla]WVKP (peptide, part only; not given: Bridge, linker and tail moieties, not shown: small tags and cut ends, also: two linked chains, linker and second chain not given here) [EPO mimetic 3. (N-End AcNYL, Loop RMβAWV, Mid KP)]

Ki [1]: 17 nM
Binder: Ac-NYLRMFWVRP (peptide, part only; not given: Bridge, linker and tail moieties, not shown: small tags and cut ends, also: two linked chains, linker and second chain not given here) [EPO mimetic 6. (N-End AcNYL, Loop RMFWV, Mid RP)]

Ki [1]: 9.6 nM
Binder: [DesaminoY]LRMPWVKP (peptide, part only; not given: Bridge, linker and tail moieties, not shown: small tags and cut ends, also: two linked chains, linker and second chain not given here) [EPO mimetic 15. (N-End Desamino YL, Loop RMPWV, Mid KP)]

IC50 [2]: 1300 nM | Ki [2]: 615 nM | Ki (AC-0005-002)/Ki [2]: 6.3
B1: AC-0005-001 (peptide)
chain: GGNYLCRMGPITWVCKPQGG
modifications: not fully specified; cysteine pairing not given here
notes: Structure only as drawing CHEM-US-00003; also called compound 001

Ki [1]: 22 nM
Binder: Ac-NYLRMGWVKP (peptide, part only; not given: Bridge, linker and tail moieties, not shown: small tags and cut ends, also: two linked chains, linker and second chain not given here) [EPO mimetic 2. (N-End AcNYL, Loop RMGWV, Mid KP)]

IC50 [2]: 119 nM | Ki [2]: 56 nM | Ki (AC-0005-002)/Ki [2]: 69 | IC50 [3]: 171 nM | Ki [3]: 81 nM | Ki (AC-0005-002)/Ki [3]: 48 | IC50 [4]: 164 nM | Ki [4]: 78 nM | Ki (AC-0005-002)/Ki [4]: 0.041
B2: AC-0005-003 (peptide)
chain: NYLCRMGPITWVCKP
modifications: not fully specified; cysteine pairing not given here
notes: Structure only as drawing CHEM-US-00005; also called compound 003; Control 2: AC-0005-003

IC50 [2]: 265 nM | Ki [2]: 126 nM | Ki (AC-0005-002)/Ki [2]: 31
B3: AC-0005-004 (peptide)
chain: LYACHMGPITAVCQP
modifications: not fully specified; cysteine pairing not given here
notes: Structure only as drawing CHEM-US-00006; also called compound 004

Ki [1]: 34 nM
Binder: Ac-NYLRMLWVRP (peptide, part only; not given: Bridge, linker and tail moieties, not shown: small tags and cut ends, also: two linked chains, linker and second chain not given here) [EPO mimetic 8. (N-End AcNYL, Loop RMLWV, Mid RP)]

Ki [1]: 23 nM
Binder: Ac-NYLRM[hLeu]WVRP (peptide, part only; not given: Bridge, linker and tail moieties, not shown: small tags and cut ends, also: two linked chains, linker and second chain not given here) [EPO mimetic 9. (N-End AcNYL, Loop RMhomoLWV, Mid RP)]

IC50 [2]: 8170 nM | Ki [2]: 3870 nM | Ki (AC-0005-002)/Ki [2]: 1
B4: AC-0005-002 (peptide)
chain: GGLYACHMGPITAVCQPQGG
modifications: not fully specified; cysteine pairing not given here
notes: Structure only as drawing CHEM-US-00004; also called compound 002

Ki [1]: 44 nM
Binder: Ac-NYLRMGWVRP (peptide, part only; not given: Bridge, linker and tail moieties, not shown: small tags and cut ends, also: two linked chains, linker and second chain not given here) [EPO mimetic 4. (N-End AcNYL, Loop RMGWV, Mid RP)]
